Test results as given in patent US20170267771A1 (BIONOVION HOLDING B V, published 2017).

Experiments:
[1] = molecular target: human CD27, full length, expressed on cells (CHO-K1.CD27, MCF-7, HEK293T, human T cells) (human) (UniProt P26842); experiment: competition cell ELISA on CHO-K1.CD27 cells; competitor recombinant CD70 fusion protein (0.5 ug/ml)
[2] = molecular target: recombinant soluble hCD27-Fc fusion protein (rhCD27/Fc chimera, R&D systems cat. no. 382-CD) (human) (UniProt P26842); experiment: competition cell ELISA: rhCD27-Fc (0.5 ug/ml) preincubated with antibody, binding to CHO-K1.CD70 cells
[3] = molecular target: human CD27, full length, expressed on cells (CHO-K1.CD27, MCF-7, HEK293T, human T cells) (human) (UniProt P26842); experiment: cell ELISA on CHO-K1.hCD27 cells
[4] = molecular target: recombinant soluble hCD27-Fc fusion protein (rhCD27/Fc chimera, R&D systems cat. no. 382-CD) (human) (UniProt P26842); experiment: competition cell ELISA (CHO-K1.CD70 competition assay): antibody dilutions mixed with rhCD27-Fc chimera, mix put on CHO-K1.CD70 cells, bound CD27-Fc detected with anti-human Ig-HRP; blocked ligand: hCD70 on the cells
[5] = molecular target: T1, mouse CD27, full length, expressed on retrovirally transduced MCF-7 cells (mouse, UniProt P41272 24-250); experiment: flow cytometry on MCF-7 cells transduced with mouse CD27
T1 construct: whole, on cells
T1 sequence (looked up): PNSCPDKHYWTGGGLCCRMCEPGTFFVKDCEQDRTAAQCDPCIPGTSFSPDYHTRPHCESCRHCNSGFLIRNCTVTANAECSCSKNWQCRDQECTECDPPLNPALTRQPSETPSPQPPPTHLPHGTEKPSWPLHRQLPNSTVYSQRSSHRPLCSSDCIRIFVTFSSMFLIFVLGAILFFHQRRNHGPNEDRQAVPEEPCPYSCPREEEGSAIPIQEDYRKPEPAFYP
Procedure: Binding of hCD27 antibodies to mouse CD27 was determined using MCF-7 breast carcinoma cells that had been retrovirally transduced to stably express the full length cDNA encoding human CD27 or mouse CD27. Empty vector-transduced cells served as a control. Binding of the antibodies was tested by flow cytometric analysis, with validated agonistic anti-hCD27 antibodies 1A4 and CLB CD27/1; and anti-mouse CD27 LG.3A10 (Gravestein et al., 1995, Int Immunol. 7:551-7) as positive controls. These commercially available anti-hCD27 antibodies, which have been reported to harbor agonistic activities, were obtained as described in Table 2.

[6] = molecular target: T2, recombinant soluble hCD27-Fc fusion protein (rhCD27/Fc chimera, R&D systems cat. no. 382-CD) (human, UniProt P26842 21-192); experiment: SPR (Biacore 2000), antibody amine-coupled to chip, rhCD27Fc chimera as analyte, 1:1 Langmuir fit
T2 construct: Bought reagent; Fc part of the bought chimera not given
T2 sequence (looked up): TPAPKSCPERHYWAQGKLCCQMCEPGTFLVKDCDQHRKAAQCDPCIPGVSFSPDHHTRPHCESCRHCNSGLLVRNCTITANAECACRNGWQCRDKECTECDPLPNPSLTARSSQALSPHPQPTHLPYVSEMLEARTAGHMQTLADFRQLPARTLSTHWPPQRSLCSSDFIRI
Procedure: The binding properties of hCD27.15 antibodies were characterized in more detail using label-free surface plasma resonance using Biacore 2000 equipment. Low amounts of antibodies were coupled to a CMS sensor chip using amine coupling at pH=4.5, with Rₘₐₓ not exceeding 100 RU. This will, in combination with a high flow level (30 μl/min) yield good fits to the 1:1 Langmuir binding model. A concentration series of rhCD27Fc chimera, ranging from 0.016 nM to 1 nM, was injected for 1 minute at 30 μl/min. The dissociation was monitored for 5 minutes. The running buffer is HEPES-buffered saline with 3 mM EDTA and 0.005% P20 (HBS-EP), pH 7.4. Combination plots were made by subtraction of the signal obtained at the blank flow cell, using BIAeval 3.2. The sensor grams were fitted to a 1:1 Langmuir binding model.

[7] = molecular target: T2, recombinant soluble hCD27-Fc fusion …; experiment: competition cell ELISA: rhCD27-Fc (0.5 ug/ml) preincubated with antibody, binding to CHO-K1.CD70 cells
Procedure: Blocking properties of the purified antibodies were studied using two competition assays. The CHO-K1.CD70 assay works along the following principles: CHO-K1.CD70 cells were seeded in a 96 well plate at a density of 40,000 cells/well. The same amount of plates was blocked by adding 300 μl medium/well, and all plates were incubated overnight at 37° C. The following day, the medium-only containing plates were emptied by flicking the plate, and 50 μl/well rhCD27-Fc chimera (0.5 μg/ml) (R&D systems cat. no. 382-CD) was added. To these plates, 50 μl of different dilutions of purified hCD27.15 antibodies were added. After 1 hour incubation at room temperature, the 100 μl rhCD27Fc/antibody mix was transferred to the CHO-K1/CD70 plate(s) from which the medium had been removed. These plate(s) were incubated for 1 hour at room temperature and then washed 3 times with PB ST. 100 μl anti-human Ig (H+L)-HRP conjugate (1:2,500) was added to every well (Promega, cat. no. W4031) and the plates were incubated for 1 hour at 37° C. After 6 final washes with PBST TMB Stabilized Chromagen (Invitrogen, cat. no. SB02) (100 μl/well) was added and the ELISA was read out as outlined above. […] Calculated IC₅₀ values of hCD27.15 and the positive control 1A4, which represent the concentration at which half of the inhibition is observed, are presented in Table 1.

[8] = molecular target: T3, human CD27, full length, expressed on cells (CHO-K1.CD27, MCF-7, HEK293T, human T cells) (human, UniProt P26842 20-260); experiment: competition cell ELISA on CHO-K1.CD27 cells; competitor recombinant CD70 fusion protein (0.5 ug/ml)
T3 construct: whole, on cells; Full length cDNA of hCD27 in pCI-neo (CHO-K1), a retroviral vector (MCF-7) or pcDNA3 (HEK293T); Also stands for native CD27 on human T cells in the functional rows; also called hCD27; CHO-K1.hCD27
T3 sequence (looked up): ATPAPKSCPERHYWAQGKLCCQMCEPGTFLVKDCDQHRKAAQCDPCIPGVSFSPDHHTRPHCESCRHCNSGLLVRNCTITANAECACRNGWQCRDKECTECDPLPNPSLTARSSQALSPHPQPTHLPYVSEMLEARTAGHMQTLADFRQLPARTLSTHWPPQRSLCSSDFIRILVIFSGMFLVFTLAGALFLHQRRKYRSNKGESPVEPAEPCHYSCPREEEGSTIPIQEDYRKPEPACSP
Procedure: The CHO-K1.CD27 assay works along the following principles: CHO-K1.CD27 cells were seeded (40,000 cells/well) in a 96-well plate and incubated overnight at 37° C. After medium removal, 50 μl recombinant mouse CD70 fusion Protein (Fc-mCD70) (0.5 μg/ml) and 50 μl of different dilutions of purified anti-hCD27 antibodies were added. […] A cDNA construct encoding this fusion protein was constructed as described by Rowley and Al-Shamkhani, 2004, J Immunol 15:172:6039-46 and used to produce Fc-mCD70 protein in 293T human embryonic kidney cells. The protein was purified by affinity chromatography on Protein A Sepharose (GE Health Care).

[9] = molecular target: T3, human CD27, full length, expressed on …; experiment: cell ELISA on CHO-K1.hCD27 cells
Procedure: Cell-based ELISA experiments using purified hCD27 antibodies were performed to determine binding activities of hCD27 to cellularly expressed hCD27. In this cell-ELISA, all incubation steps were followed by a wash step with PEST (PBS with 0.01% Tween 20). CHO-K1.hCD27 cells were seeded (40,000 cells/well) in tissue culture plates and incubated overnight at 37° C. The next day, culture medium was removed and cells were incubated for one hour with (dilutions of) purified antibodies at 37° C. Next, cells were washed with PBST and incubated for one hour at 37° C. with 1:1,000 goat-anti-mouse IgG-HRP (Southern Biotechnology, # 1030-05). Subsequently, cells were washed 6 times with PBST and anti-hCD27 immunoreactivity was visualized with 100 μl TMB Stabilized Chromagen (Invitrogen, cat. no. SB02). Reactions were stopped with 100 μl 0.5 M […] and absorbances were read at […] and 620 nm. […] Calculated EC₅₀, representing the concentration at which 50% of the total binding signal is observed are represented in Table 1.

anti-hCD27, clone 1A4 (Beckman Coulter, cat. no. IM2034) (antibody)
IC50 [1]: 0.0937 µg/mL
IC50 [2]: 0.37 µg/mL
EC50 [3]: 0.033 µg/mL

anti-hCD27, clone 57703 (R&D systems, cat. no. MAB382) (antibody)
IC50 (read off the curve) [4]: 0.2 µg/mL

B1: monoclonal antibody hCD27.15 (hybridoma hCD27.15, ATCC PTA-11008) (antibody, mouse IgG1, V domains shown)
VH: EVRLQQSGADLVKPGASVKLSCTASGFIIKATYMHWVRQRPEQGLEWIGRIDPANGETKYDPKFQVKATITADTSSSTAYLQLNSLTSDDTAVYYCARYAWYFDVWGAGTTVTVSS
VL: DIQMTQSPASLSASVGDTVTITCRASENIYSFLAWYHQKQGRSPQLLVYHAKTLAEGVPSRFSGSGSGTQFSLKINSLQAEDFGSYYCQHYYGSPLTFGAGTKLEVK
notes: Mouse antibody purified from hybridoma; VH is joined to a mouse IgG1 constant region and VL to the kappa constant region; also called hCD27.15 mAb; anti-hCD27 antibody hCD27.15
binding result [5]: no binding
Kd [6]: 122 nM
IC50 [7]: 1.55 µg/mL
IC50 [8]: 0.864 µg/mL
EC50 [9]: 0.686 µg/mL
